Target: KDM5A PHD1 domain, S287-K347 (UniProt P29375)
Assay: competition fluorescence polarization
Conditions: reference: unmodified H3 10mer peptide

KDM5A PHD1 domain, S287-K347, sequence (P29375 whole entry, looked up, the tested form may be a part): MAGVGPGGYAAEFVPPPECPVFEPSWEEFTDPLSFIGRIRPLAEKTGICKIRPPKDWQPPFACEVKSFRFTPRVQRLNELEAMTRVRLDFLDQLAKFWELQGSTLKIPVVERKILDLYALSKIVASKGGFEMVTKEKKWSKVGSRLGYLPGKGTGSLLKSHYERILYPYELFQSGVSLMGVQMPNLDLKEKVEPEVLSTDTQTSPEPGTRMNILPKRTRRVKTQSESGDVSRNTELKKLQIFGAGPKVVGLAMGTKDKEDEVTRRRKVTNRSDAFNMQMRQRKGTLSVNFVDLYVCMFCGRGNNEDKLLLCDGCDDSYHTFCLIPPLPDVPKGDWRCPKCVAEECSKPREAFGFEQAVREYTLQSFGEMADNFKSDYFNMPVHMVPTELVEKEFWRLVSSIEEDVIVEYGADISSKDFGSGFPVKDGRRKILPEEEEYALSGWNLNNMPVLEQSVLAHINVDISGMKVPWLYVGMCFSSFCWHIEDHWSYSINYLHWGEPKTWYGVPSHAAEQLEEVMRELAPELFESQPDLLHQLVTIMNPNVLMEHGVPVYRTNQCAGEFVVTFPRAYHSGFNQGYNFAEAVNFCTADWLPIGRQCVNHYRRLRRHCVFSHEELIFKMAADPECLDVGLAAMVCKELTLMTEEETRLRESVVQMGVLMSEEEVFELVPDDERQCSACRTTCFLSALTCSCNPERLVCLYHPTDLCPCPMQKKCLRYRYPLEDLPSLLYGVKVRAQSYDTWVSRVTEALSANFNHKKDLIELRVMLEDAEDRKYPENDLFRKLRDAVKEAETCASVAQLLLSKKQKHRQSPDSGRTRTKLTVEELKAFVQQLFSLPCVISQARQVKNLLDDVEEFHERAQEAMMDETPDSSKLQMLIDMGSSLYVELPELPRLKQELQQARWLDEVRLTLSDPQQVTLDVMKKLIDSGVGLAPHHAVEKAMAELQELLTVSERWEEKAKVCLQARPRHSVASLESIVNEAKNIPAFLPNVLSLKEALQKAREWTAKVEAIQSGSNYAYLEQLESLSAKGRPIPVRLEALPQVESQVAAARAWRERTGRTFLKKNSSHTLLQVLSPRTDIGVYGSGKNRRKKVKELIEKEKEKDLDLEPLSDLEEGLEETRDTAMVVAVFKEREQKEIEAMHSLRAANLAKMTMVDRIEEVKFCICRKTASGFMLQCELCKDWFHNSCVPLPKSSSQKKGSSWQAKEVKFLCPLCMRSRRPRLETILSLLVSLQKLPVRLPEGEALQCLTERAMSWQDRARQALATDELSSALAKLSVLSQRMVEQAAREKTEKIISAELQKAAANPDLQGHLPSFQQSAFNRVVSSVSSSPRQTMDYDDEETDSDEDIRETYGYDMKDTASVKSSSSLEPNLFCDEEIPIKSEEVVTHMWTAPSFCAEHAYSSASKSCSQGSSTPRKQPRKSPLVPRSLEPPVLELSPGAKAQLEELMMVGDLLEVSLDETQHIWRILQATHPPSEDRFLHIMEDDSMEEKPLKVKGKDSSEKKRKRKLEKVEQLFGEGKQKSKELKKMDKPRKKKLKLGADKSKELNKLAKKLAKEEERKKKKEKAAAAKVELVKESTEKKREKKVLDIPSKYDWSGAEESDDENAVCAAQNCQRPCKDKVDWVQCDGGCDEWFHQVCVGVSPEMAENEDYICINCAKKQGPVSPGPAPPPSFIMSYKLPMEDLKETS

histone H3 (N-terminal tail peptide) N-terminal tail 10mer, 1-10 (from UniProt P68431) H3T3ph 10mer peptide
binding against the reference (sites T3): weaker

histone H3 (N-terminal tail peptide) N-terminal tail 10mer, 1-10 (from UniProt P68431) H3T6ph 10mer peptide
binding against the reference (sites T6): weaker

— paper PMC6327041, “Histone H3 binding to the PHD1 domain of histone demethylase KDM5A enables active site remodeling” (Nature Communications, 2019)
